Experiment [1] deals with CD16 (FcγRIIIA) receptor expressed on Jurkat-CD16 cells (human, UniProt P08637 17-208). Put plainly: cell-based or functional assay.
Experiment [2] concerns the target T1, CD20 antigen expressed on Raji cells (UniProt P11836 1-297, limits assumed).
T1 construct: whole, on cells; Raji is a human B cell line
T1 sequence (looked up): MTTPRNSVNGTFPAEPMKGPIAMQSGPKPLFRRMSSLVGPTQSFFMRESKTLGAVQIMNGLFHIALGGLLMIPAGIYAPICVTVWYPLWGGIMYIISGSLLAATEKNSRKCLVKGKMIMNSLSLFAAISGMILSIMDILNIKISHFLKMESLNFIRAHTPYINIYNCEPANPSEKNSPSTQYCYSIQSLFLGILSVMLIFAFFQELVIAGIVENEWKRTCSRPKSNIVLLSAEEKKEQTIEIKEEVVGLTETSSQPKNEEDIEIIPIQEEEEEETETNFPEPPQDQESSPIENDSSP
The experiment is described as follows: flow cytometry competition on Raji cells; competitor CAT-13.6E12 detected with PE anti-mouse IgG.

The target in experiment [3] is T1, CD20 antigen expressed on Raji cells. Put plainly: specificity study, as for EMAB6 (competition with CAT-13.6E12 on Raji cells); no details given.

Residue numbers refer to the chain shown, from its start.

The record followed here is US20090053233A1 (LABORATOIRE FRANCAIS DU FRACTIONNEMENT ET DES …, published 2009).

Sequence of CD16 (FcγRIIIA) receptor expressed on Jurkat-CD16 cells (P08637 17-208): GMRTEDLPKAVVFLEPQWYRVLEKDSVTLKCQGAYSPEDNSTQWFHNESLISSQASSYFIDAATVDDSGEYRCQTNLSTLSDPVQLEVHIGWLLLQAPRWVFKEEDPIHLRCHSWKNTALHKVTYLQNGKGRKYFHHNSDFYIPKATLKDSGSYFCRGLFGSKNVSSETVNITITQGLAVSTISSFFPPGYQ

B1: anti-CD20 chimeric antibody EMAB6 produced by clone R509 (YB2/0 cell line) (antibody, human IgG1, kappa)
heavy: not shown
light: QIVLSQSPAILSASPGEKVTMTCRASSSVSYMHWYQQKPGSSPKPWIYATSNLASGVPARFSGSGSGTSYSFTISRVEAEDAATYYCQQWTFNPPTFGGGTRLEINRTVAAPSVFIFPPSDEQLKSGTASVVCLLNNFYPREAKVQWKVDNALQSGNSQESVTEQDSKDSTYSLSSTLTLSKADYEKHKVYACEVTHQGLSSPVTKSFNRGEC
notes: Murine-human chimeric IgG1 kappa (murine CAT-13.6E12 variable regions, human gamma1 and kappa constant regions), produced in rat YB2/0 cells, low fucose; The cloned V fragments carry the natural signal peptide; also called chimeric EMAB6 antibody; AMAB6
On to B1, for which, in experiment [1], the “Rituxan® EC50/EMAB6 EC50 ratio, IL-2 secretion by Jurkat-CD16 cells in the presence of Raji cells” value is about 15 ratio. The binding result in experiment [2] was “binds”.

B2: anti-CD20 chimeric antibody EMAB603 produced by clone R603 (YB2/0 cell line) (antibody, human IgG1, kappa)
heavy: not shown
light: B1 light with N106K
notes: Murine-human chimeric IgG1 kappa; Produced in rat YB2/0 cells; also called chimeric EMAB603 antibody; EMBA603
Turning to B2, in experiment [3], the binding result is given as “binds”.
